Assay results from article PMC10786891, “Massively parallel profiling of RNA-targeting CRISPR-Cas13d”.
Positions count from the first letter of the chain named. In names and notes the source's numbering stands.

T1: EsCas13d, nuclease-dead (Eubacterium siraeum, UniProt B0MS50, R295A;H300A;R849A;H854A)
T1 sequence: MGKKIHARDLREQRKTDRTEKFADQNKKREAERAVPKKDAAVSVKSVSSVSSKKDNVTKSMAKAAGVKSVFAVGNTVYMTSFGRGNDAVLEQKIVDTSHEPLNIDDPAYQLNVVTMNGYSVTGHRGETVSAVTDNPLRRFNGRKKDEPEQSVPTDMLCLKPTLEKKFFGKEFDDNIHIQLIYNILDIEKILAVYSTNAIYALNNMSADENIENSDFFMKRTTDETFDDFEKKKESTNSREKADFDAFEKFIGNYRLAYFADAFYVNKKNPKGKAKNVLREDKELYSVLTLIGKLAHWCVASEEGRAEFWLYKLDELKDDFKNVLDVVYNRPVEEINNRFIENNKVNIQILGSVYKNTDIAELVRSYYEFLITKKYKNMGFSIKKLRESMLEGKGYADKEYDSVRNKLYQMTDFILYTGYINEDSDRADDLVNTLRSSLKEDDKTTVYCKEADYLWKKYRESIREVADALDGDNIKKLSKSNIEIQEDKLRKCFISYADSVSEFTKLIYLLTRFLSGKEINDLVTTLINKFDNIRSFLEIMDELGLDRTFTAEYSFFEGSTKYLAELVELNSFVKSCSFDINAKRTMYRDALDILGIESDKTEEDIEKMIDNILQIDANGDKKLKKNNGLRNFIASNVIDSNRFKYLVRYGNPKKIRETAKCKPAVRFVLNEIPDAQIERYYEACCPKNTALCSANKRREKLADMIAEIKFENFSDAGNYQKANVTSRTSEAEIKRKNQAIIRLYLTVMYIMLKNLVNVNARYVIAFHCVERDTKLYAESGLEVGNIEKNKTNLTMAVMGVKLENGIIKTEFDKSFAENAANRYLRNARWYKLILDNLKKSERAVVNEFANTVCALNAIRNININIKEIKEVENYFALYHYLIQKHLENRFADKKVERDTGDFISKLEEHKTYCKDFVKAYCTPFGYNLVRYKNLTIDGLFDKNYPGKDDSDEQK

B1: target 2 MT 5'PFS UGC 3'PFS CUA (mixed)
RNA 1: CACCCGUGCAAAAUUGCAGGGGUCUAAAACCUUCUCCAAAUUGUUUCAUCCU
RNA 2: GGGAAUGGAUCCACAUCUACGAAUUCUGCAGGAUGAAACAAUUUGGAGAAGCUAAGAUCGGAAGAGCACACGU
B2: target 2 MT 5'PFS ACG 3'PFS AAC (mixed)
RNA 1: B1 RNA 1
RNA 2: B1 RNA 2 with U27A, G28C, C29G, C52A, U53A, A54C
B3: target 2 MT 5'PFS AUC 3'PFS AGC (mixed)
RNA 1: B1 RNA 1
RNA 2: B1 RNA 2 with U27A, G28U, C52A, U53G, A54C
B4: target 2 MT 5'PFS UAU 3'PFS GGC (mixed)
RNA 1: B1 RNA 1
RNA 2: B1 RNA 2 with G28A, C29U, C52G, U53G, A54C
B5: target 2 MT 5'PFS AUG 3'PFS CUU (mixed)
RNA 1: B1 RNA 1
RNA 2: B1 RNA 2 with U27A, G28U, C29G, A54U
B6: target 2 MT 5'PFS ACU 3'PFS UAC (mixed)
RNA 1: B1 RNA 1
RNA 2: B1 RNA 2 with U27A, G28C, C29U, C52U, U53A, A54C
B7: target 2 MT 5'PFS CAC 3'PFS AAA (mixed)
RNA 1: B1 RNA 1
RNA 2: B1 RNA 2 with U27C, G28A, C52A, U53A
B8: target 2 MT 5'PFS GGC 3'PFS ACA (mixed)
RNA 1: B1 RNA 1
RNA 2: B1 RNA 2 with U27G, C52A, U53C
B9: target 2 MT 5'PFS GCU 3'PFS CGA (mixed)
RNA 1: B1 RNA 1
RNA 2: B1 RNA 2 with U27G, G28C, C29U, U53G
B10: target 2 MT 5'PFS AUG 3'PFS CUA (mixed)
RNA 1: B1 RNA 1
RNA 2: B1 RNA 2 with U27A, G28U, C29G
B11: target 2 MT 5'PFS CAC 3'PFS AAC (mixed)
RNA 1: B1 RNA 1
RNA 2: B1 RNA 2 with U27C, G28A, C52A, U53A, A54C
B12: target 2 MT 5'PFS ACU 3'PFS UAU (mixed)
RNA 1: B1 RNA 1
RNA 2: B1 RNA 2 with U27A, G28C, C29U, C52U, U53A, A54U
B13: target 2 MT 5'PFS UCU 3'PFS ACU (mixed)
RNA 1: B1 RNA 1
RNA 2: B1 RNA 2 with G28C, C29U, C52A, U53C, A54U
B14: target 2 MT 5'PFS UGC 3'PFS CUU (mixed)
RNA 1: B1 RNA 1
RNA 2: B1 RNA 2 with A54U
B15: target 2 MT 5'PFS GUU 3'PFS UAA (mixed)
RNA 1: B1 RNA 1
RNA 2: B1 RNA 2 with U27G, G28U, C29U, C52U, U53A
B16: target 2 MT 5'PFS ACG 3'PFS AAG (mixed)
RNA 1: B1 RNA 1
RNA 2: B1 RNA 2 with U27A, G28C, C29G, C52A, U53A, A54G
B17: target 2 MT 5'PFS ACG 3'PFS AAU (mixed)
RNA 1: B1 RNA 1
RNA 2: B1 RNA 2 with U27A, G28C, C29G, C52A, U53A, A54U
B18: target 2 MT 5'PFS ACU 3'PFS UAA (mixed)
RNA 1: B1 RNA 1
RNA 2: B1 RNA 2 with U27A, G28C, C29U, C52U, U53A
B19: target 2 MT 5'PFS AUC 3'PFS AGA (mixed)
RNA 1: B1 RNA 1
RNA 2: B1 RNA 2 with U27A, G28U, C52A, U53G
B20: target 2 MT 5'PFS UGC 3'PFS CUG (mixed)
RNA 1: B1 RNA 1
RNA 2: B1 RNA 2 with A54G
B21: target 2 MT 5'PFS GUU 3'PFS UAU (mixed)
RNA 1: B1 RNA 1
RNA 2: B1 RNA 2 with U27G, G28U, C29U, C52U, U53A, A54U
B22: target 2 MT 5'PFS CUC 3'PFS AGU (mixed)
RNA 1: B1 RNA 1
RNA 2: B1 RNA 2 with U27C, G28U, C52A, U53G, A54U
B23: target 2 MT 5'PFS GUU 3'PFS UAC (mixed)
RNA 1: B1 RNA 1
RNA 2: B1 RNA 2 with U27G, G28U, C29U, C52U, U53A, A54C
B24: target 2 MT 5'PFS GCU 3'PFS CGG (mixed)
RNA 1: B1 RNA 1
RNA 2: B1 RNA 2 with U27G, G28C, C29U, U53G, A54G
B25: target 2 MT 5'PFS AUG 3'PFS CUC (mixed)
RNA 1: B1 RNA 1
RNA 2: B1 RNA 2 with U27A, G28U, C29G, A54C
B26: target 2 MT 5'PFS UGC 3'PFS CUC (mixed)
RNA 1: B1 RNA 1
RNA 2: B1 RNA 2 with A54C
B27: target 2 MT 5'PFS ACU 3'PFS UAG (mixed)
RNA 1: B1 RNA 1
RNA 2: B1 RNA 2 with U27A, G28C, C29U, C52U, U53A, A54G
B28: target 2 MT 5'PFS CUC 3'PFS AGG (mixed)
RNA 1: B1 RNA 1
RNA 2: B1 RNA 2 with U27C, G28U, C52A, U53G, A54G
B29: target 2 MT 5'PFS GUA 3'PFS GCC (mixed)
RNA 1: B1 RNA 1
RNA 2: B1 RNA 2 with U27G, G28U, C29A, C52G, U53C, A54C
B30: target 2 MT 5'PFS GUA 3'PFS GCG (mixed)
RNA 1: B1 RNA 1
RNA 2: B1 RNA 2 with U27G, G28U, C29A, C52G, U53C, A54G
B31: target 2 MT 5'PFS GGC 3'PFS ACG (mixed)
RNA 1: B1 RNA 1
RNA 2: B1 RNA 2 with U27G, C52A, U53C, A54G
B32: target 2 MT 5'PFS UCG 3'PFS UGU (mixed)
RNA 1: B1 RNA 1
RNA 2: B1 RNA 2 with G28C, C29G, C52U, U53G, A54U
B33: target 2 MT 5'PFS GGC 3'PFS ACU (mixed)
RNA 1: B1 RNA 1
RNA 2: B1 RNA 2 with U27G, C52A, U53C, A54U
B34: target 2 MT 5'PFS CUC 3'PFS AGA (mixed)
RNA 1: B1 RNA 1
RNA 2: B1 RNA 2 with U27C, G28U, C52A, U53G
B35: target 2 MT 5'PFS CUC 3'PFS AGC (mixed)
RNA 1: B1 RNA 1
RNA 2: B1 RNA 2 with U27C, G28U, C52A, U53G, A54C
B36: target 1 insA 3' of 21,insU 3' of 6 (mixed)
RNA 1: CACCCGUGCAAAAAUGCAGGGGUCUAAAACUGAGCGGAUAACCUCUCUAUGG
RNA 2: GGGAAUGGAUCCACAUCUACGAAUUCGUACCAAUAGAGAGGUUAUCCUGCUCACCGAGAUCGGAAGAGCACACGU
B37: target 1 C2U,A9U (mixed)
RNA 1: B36 RNA 1
RNA 2: GGGAAUGGAUCCACAUCUACGAAUUCGUACCAUAGAGAGGUUUUCCGCUUACCGAGAUCGGAAGAGCACACGU
B38: target 1 A9C,G15U (mixed)
RNA 1: B36 RNA 1
RNA 2: B37 RNA 2 with G37U, U43C, U50C

Biological target: T1, EsCas13d, nuclease-dead
Assay: crRNA (strand 1, pre-loaded); Mg2+; 40 mM Tris-HCl pH 7.5, 150 mM NaCl, 6 mM MgCl2, 1 mM DTT, 0.1% Tween-20, 0.2 mg/ml BSA; 25 C; 10 min per concentration, then washed
Conditions: tags: His6-TwinStrep-SUMO cleaved; N-terminal SNAP kept (SNAP-Surface 488); label: 3' end held by stalled T7 RNA polymerase

Row | Binder | Kd [nM]
1 | B1 | 16 ± 6
2 | B2 | 5.5 ± 1.2
3 | B3 | 21 ± 8
4 | B4 | 44 ± 12
5 | B5 | 15.4 ± 2.9
6 | B6 | 6.2 ± 0.9
7 | B7 | 1.71 ± 0.3
8 | B8 | 18 ± 4
9 | B9 | 23 ± 5
10 | B10 | 7.5 ± 0.9
11 | B11 | 1.98 ± 0.3
12 | B12 | 3.8 ± 0.6
13 | B13 | 9.4 ± 1.8
14 | B14 | ~110
15 | B15 | 15.3 ± 3.3
16 | B16 | 9.8 ± 1.8
17 | B17 | 5.4 ± 1.3
18 | B18 | 4 ± 0.9
19 | B19 | ~80

Row | Binder | Kd [nM]
20 | B20 | 34 ± 9
21 | B21 | 16.2 ± 2.7
22 | B22 | 3.5 ± 0.8
23 | B23 | 22 ± 4
24 | B24 | 19 ± 4
25 | B25 | 16 ± 5
26 | B26 | 26 ± 6
27 | B27 | 3.5 ± 0.4
28 | B28 | 2.8 ± 0.5
29 | B29 | 6.4 ± 1.5
30 | B30 | 6.7 ± 0.6
31 | B31 | 15.8 ± 1.1
32 | B32 | ~120
33 | B33 | 21.3 ± 2.5
34 | B34 | 1.68 ± 0.16
35 | B35 | 1.98 ± 0.25
36 | B36 | 20.3 ± 1.5
37 | B37 | 8.5 ± 0.7
38 | B38 | ~70
